# Data reported in patent US20200010546A1 (TRICAN BIOTECHNOLOGY, published 2020).
# Legend:
# [1] = target: T1, recombinant human His-tagged SIRP-α protein (R&D Systems, USA) (human, UniProt P78324 31-370, limits assumed); experiment: direct ELISA, SIRP-α coated at 1 µg/ml
# T1 construct: Bought from R&D Systems; also called signal-regulatory protein alpha; not shown: His tag
# [2] = target: T2, recombinant human CD47-Fc protein (R&D Systems, USA) (human, UniProt Q08722 19-139); experiment: titration ELISA on coated CD47-Fc
# T2 construct: Bought from R&D Systems; also called CD47-Fc fusion protein; recombinant CD47; not shown: Fc part of the bought fusion
# [3] = target: T2, recombinant human CD47-Fc protein (R&D …); experiment: ELISA of Fab supernatant on coated CD47-Fc
# [4] = target: T2, recombinant human CD47-Fc protein (R&D …); experiment: blocking ELISA: CD47-Fc (1 µg/ml) binding to coated His-tagged SIRP-α
# T1 sequence (P78324 31-370 limits assumed): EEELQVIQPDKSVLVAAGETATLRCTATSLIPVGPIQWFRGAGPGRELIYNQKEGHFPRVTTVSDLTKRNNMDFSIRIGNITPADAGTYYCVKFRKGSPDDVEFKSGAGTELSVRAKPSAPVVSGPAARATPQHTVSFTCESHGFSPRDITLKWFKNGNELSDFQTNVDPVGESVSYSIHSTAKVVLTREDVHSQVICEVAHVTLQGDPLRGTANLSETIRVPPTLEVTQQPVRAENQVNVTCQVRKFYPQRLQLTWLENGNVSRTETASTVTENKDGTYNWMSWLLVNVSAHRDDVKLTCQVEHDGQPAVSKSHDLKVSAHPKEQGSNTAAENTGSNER
# T2 sequence (Q08722 19-139 limits assumed): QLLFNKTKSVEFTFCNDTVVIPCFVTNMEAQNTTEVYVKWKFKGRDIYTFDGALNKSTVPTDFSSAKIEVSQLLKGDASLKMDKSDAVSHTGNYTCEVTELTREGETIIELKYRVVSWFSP
Binder,binding result [1],EC50 [2] [nM],OD450 [3] [OD450],IC50 [4] [nM]
"BrP1F11 (IgG4-reformatted anti-CD47 antibody) (antibody, V domains shown, Full-length human IgG4, expressed in HEK293 cells; also called BrP1F11-G4) VH: QVQLVQSGAEVKKPGASVKISCKASGYTFTTYHIHWVRQAPGQGLEWMGVINSNAGNTGYAQNFQDRVTMTRDTSTSTVYMELRSLKSDDTAVYYCAKDPGMGWYMHHWGQGTLVTVSS VL: NFMLTQPQSVSGSPGETVTISCTGSGGPIASNYVQWYQQRPGSVPTTVIYEDTKRPSGVPDRFSGSIDSSSNSASLTISGLKTEDEADYYCQSYESRNYVFGTGTKVSVLS",no binding (tested: 0.5 µg/ml),1.21,,
"BrP1F11 Fab (library clone) (Fab, V domains shown, Fab in bacterial supernatant) VH: QVQLVQSGAEVKKPGASVKISCKASGYTFTTYHIHWVRQAPGQGLEWMGVINSNAGNTGYAQNFQDRVTMTRDTSTSTVYMELRSLKSDDTAVYYCAKDPGMGWYMHHWGQGTLVTVSS VL: NFMLTQPQSVSGSPGETVTISCTGSGGPIASNYVQWYQQRPGSVPTTVIYEDTKRPSGVPDRFSGSIDSSSNSASLTISGLKTEDEADYYCQSYESRNYVFGTGTKVSVLS",,,> 0.5,
"BrP1F3 (IgG4-reformatted anti-CD47 antibody) (antibody, V domains shown, Full-length human IgG4, expressed in HEK293 cells) VH: QVQLVQSGAEVKKPGASVKVSCKASGYTFTSYYMHWVRQAPGQGLEWMGIINPSGGSTSYAQKFQGRVTMTRDTSTSTVYMELSSLRSEDTAVYYCARGGTLGMDVWGQGTTVTVSS VL: SSELTQDPAVSVALGQTVRITCQGDSLRSYYASWYQQKPGQAPVLVIYGKNNRPSGIPDRFSGSSSGNTASLTITGAQAEDEADYYCNSRDSSGNHYVFGTGTKVTVLG",no binding (tested: 0.5 µg/ml),10.1,,
"BrP1F3 Fab (library clone) (Fab, V domains shown, Fab in bacterial supernatant) VH: QVQLVQSGAEVKKPGASVKVSCKASGYTFTSYYMHWVRQAPGQGLEWMGIINPSGGSTSYAQKFQGRVTMTRDTSTSTVYMELSSLRSEDTAVYYCARGGTLGMDVWGQGTTVTVSS VL: SSELTQDPAVSVALGQTVRITCQGDSLRSYYASWYQQKPGQAPVLVIYGKNNRPSGIPDRFSGSSSGNTASLTITGAQAEDEADYYCNSRDSSGNHYVFGTGTKVTVLG",,,> 0.5,
"CwP2F12 (IgG4-reformatted anti-CD47 antibody) (antibody, V domains shown, Full-length human IgG4, expressed in HEK293 cells) VH: QVQLVQSGAEVKKPGASVRLSCKASGYTFSSYYMHWVRQAPGQGLVWMGTSIPTAASGSYAQKFQGRVTMTRDTSTTTVYMELSSLRSEDTAVYYCARGGRGGFDYWGQGTPVTVSS VL: QPGLTQPPSVSKGLRRTATLTCTGNSNNVGNQGAVWLQQHQGHPPKLLSYRNNNRPSGISERFSASRSANTASLTITGLQPEDEADYYCSAWDSSLSGWVFGGGTKLTVLG",no binding (tested: 0.5 µg/ml),0.441,,0.063
"CwP2F12 Fab (library clone) (Fab, V domains shown, Fab in bacterial supernatant) VH: QVQLVQSGAEVKKPGASVRLSCKASGYTFSSYYMHWVRQAPGQGLVWMGTSIPTAASGSYAQKFQGRVTMTRDTSTTTVYMELSSLRSEDTAVYYCARGGRGGFDYWGQGTPVTVSS VL: QPGLTQPPSVSKGLRRTATLTCTGNSNNVGNQGAVWLQQHQGHPPKLLSYRNNNRPSGISERFSASRSANTASLTITGLQPEDEADYYCSAWDSSLSGWVFGGGTKLTVLG",,,> 0.5,
"CwP1A1 Fab (library clone) (Fab, V domains shown, Fab in bacterial supernatant) VH: QITLKESGPTLVKPTQTLTLTCTFSGFSLSTRGVGVGWIRQPPGKALEWLALIYWNDDKRYSPSLKSRLTITKDTSKNQVVLTMTNMDPVDTATYYCAHLITFGGRRAFDIWGQGTMVTVSS VL: not shown",,,> 0.5,
"CwP1C4 (IgG4-reformatted anti-CD47 antibody) (antibody, V domains shown, Full-length human IgG4, expressed in HEK293 cells) VH: QVTLKESGPTLVKPTQTLTLTCTFSGLSLSTSGVGVGWIRQPPGKALEWLALIYWNDDKRYSPSLKSRLTVTKDTSKNQVVLTMTNMDPVDTATYYCAHLITFGGRRAFDIWGQGTMVTVSS VL: not shown",no binding (tested: 0.5 µg/ml),0.227,,0.155
"CwP1C4 Fab (library clone) (Fab, V domains shown, Fab in bacterial supernatant) VH: QVTLKESGPTLVKPTQTLTLTCTFSGLSLSTSGVGVGWIRQPPGKALEWLALIYWNDDKRYSPSLKSRLTVTKDTSKNQVVLTMTNMDPVDTATYYCAHLITFGGRRAFDIWGQGTMVTVSS VL: not shown",,,> 0.5,
"CwP2F8 (IgG4-reformatted anti-CD47 antibody) (antibody, V domains shown, Full-length human IgG4, expressed in HEK293 cells) VH: QVQLVQSGAEVKKPGSSVKVSCKASGGTFSSYAISWVRQAPGQGLEWMGRIIPILGIANYAQKFQGRVTITADKSTSTAYMELSSLRSEDTAVYYCARSLRWLHRVFDYWGQGTTVTVSS VL: QSVLTQPASVSGSPGQSITISCTGTSSDVGGYNYVSWYQQHPGKAPKLIIFDVINRPSGVSSRFSGSKSGTSATLVITGLQTGDEADYYCGTWDNSLRAYVFGSGTNVTALG",no binding (tested: 0.5 µg/ml),0.326,,0.068
"CwP2F8 Fab (library clone) (Fab, V domains shown, Fab in bacterial supernatant) VH: QVQLVQSGAEVKKPGSSVKVSCKASGGTFSSYAISWVRQAPGQGLEWMGRIIPILGIANYAQKFQGRVTITADKSTSTAYMELSSLRSEDTAVYYCARSLRWLHRVFDYWGQGTTVTVSS VL: QSVLTQPASVSGSPGQSITISCTGTSSDVGGYNYVSWYQQHPGKAPKLIIFDVINRPSGVSSRFSGSKSGTSATLVITGLQTGDEADYYCGTWDNSLRAYVFGSGTNVTALG",,,> 0.5,
